Patent US20250263482A1

Biological target: human CLDN18.2 expressed on cells (human)
Assay: cell-based or functional assay

Q: With Human IgG1 isotype antibody as the substance, how does the ADCC on KATOIII CLDN18.2 cells, LDH: max (% cytotoxity), run A read?
A: 0.3%

Q: What about the ADCC on KATOIII CLDN18.2 cells, LDH: max (% cytotoxity), run B of the same substance?
A: -5.51%

Q: What about the ADCC on KATOIII CLDN18.2 cells, LDH: max (% cytotoxity), run C of the same substance?
A: -7.64%

Q: What about the ADCC on NCI-N87 CLDN18.2 cells, LDH: max (% cytotoxity), run A of the same substance?
A: -6.73%

Q: And the ADCC on NCI-N87 CLDN18.2 cells, LDH: max (% cytotoxity), run B?
A: -11.7%

Q: What about the ADCC on NCI-N87 CLDN18.2 cells, LDH: max (% cytotoxity), run C of the same substance?
A: -9.22%

Q: What about the CDC on CT26 CLDN18.2 cells, LDH: max (% cytotoxity), run A of the same substance?
A: 10.8%

Q: And the CDC on CT26 CLDN18.2 cells, LDH: max (% cytotoxity), run B?
A: -0.23%

Q: And the CDC on CT26 CLDN18.2 cells, LDH: max (% cytotoxity), run C?
A: -0.38%

Q: And the CDC on KATOIII CLDN18.2 cells, LDH: max (% cytotoxity), run A?
A: -0.85%

Q: And the CDC on KATOIII CLDN18.2 cells, LDH: max (% cytotoxity), run B?
A: -2.46%

Q: What about the CDC on KATOIII CLDN18.2 cells, LDH: max (% cytotoxity), run C of the same substance?
A: -1.53%
